Results from article PMC13281853 (The FASEB Journal, 2022).

Tests used:
[1] = target: ancGR2-LBD (ligand-binding domain of the ancestral glucocorticoid receptor 2), Dex-bound; assay: SPR
[2] = target: the molecule itself; assay: SPR

- Kd [1]: 11.6 ± 1.5 µM
B1: MR-LBD (ligand-binding domain of the mineralocorticoid receptor), Dex-bound (domain or fragment)
chain: QLSTISRALTPSPVMVLENIEPEIVYAGYDSSKPDTAENLLSTLNRLAGKQMIQVVKWAKVLPGFKNLPLEDQITLIQYSWMCLSSFALSWRSYKHTNSQFLYFAPDLVFNEEKMHQSAMYELCQGMHQISLQFVRLQLTFEEYTIMKVLLLLSTIPKDGLKSQAAFEEMRTNYIKELRKMVTKCPNNSGQSWQRFYQLTKLLDSMHDLVSDLLEFCFYTFRESHALKVEFPAMLVEII
- Kd [2]: 1.49 ± 0.41 µM
